Biological target: SlNSP2-GST (Solanum lycopersicum (tomato), UniProt A0A3Q7ITG8 1-487)
Assay: EMSA

B1: pSlABCG44-WT (dsDNA)
DNA 1: GAGTGAATTTGTTTGGTTCAATTTTGTCC
DNA 2: GGACAAAATTGAACCAAACAAATTCACTC
B1: no binding.

Source: PMC11910882
